Test results from patent US5877009, “Isolated ApoA-I gene regulatory sequence elements” (Trustees of Boston University).

Key:
C/EBP (C/EBPalpha) [1] = target: T1, C/EBP (C/EBPalpha) (Rattus norvegicus, UniProt P05554 P05554:1-358); experiment: EMSA; C/EBP-BA3 complex; conditions: tags: E. coli pT7-7, about 40 kDa; chain copies: 2; label: 32P
C/EBP (C/EBPalpha) [2] = target: T1, C/EBP (C/EBPalpha); experiment: EMSA; conditions: tags: E. coli pT7-7, about 40 kDa, chain copies: 2
C/EBP (C/EBPalpha) [3] = target: T1, C/EBP (C/EBPalpha); experiment: EMSA; text cites SEQ ID NO:41, Table 3 lists AlbD as SEQ ID NO:47; conditions: tags: E. coli pT7-7, about 40 kDa; chain copies: 2; label: 32P

T1 sequence (P05554 whole entry, one chain of several): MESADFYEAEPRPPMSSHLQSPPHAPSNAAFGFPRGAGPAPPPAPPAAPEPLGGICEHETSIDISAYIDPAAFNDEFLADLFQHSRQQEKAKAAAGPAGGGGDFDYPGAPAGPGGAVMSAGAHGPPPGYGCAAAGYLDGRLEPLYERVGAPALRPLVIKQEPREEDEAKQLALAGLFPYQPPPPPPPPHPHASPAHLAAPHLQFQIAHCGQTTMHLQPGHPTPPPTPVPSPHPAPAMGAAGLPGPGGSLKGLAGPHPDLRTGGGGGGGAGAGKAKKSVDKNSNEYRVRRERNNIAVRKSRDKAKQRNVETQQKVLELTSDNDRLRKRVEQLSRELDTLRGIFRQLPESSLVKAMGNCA

B1: BA3 apoB -78 to -48 (dsDNA)
DNA 1: GCCCTTTGGACCTTTTGCAATCCTGGCGCT
DNA 2: AGCGCCAGGATTGCAAAAGGTCCAAAGGGC
binding result (C/EBP (C/EBPalpha) [1]): binds

B2: apoA-II element K (-760 to -743) (dsDNA)
DNA 1: TAAGGTGATCAAATGACC
DNA 2: GGTCATTTGATCACCTTA
binding result (C/EBP (C/EBPalpha) [2]): no binding

B3: CIIIB(WT) apoCIII -92 to -67 (dsDNA)
DNA 1: GGTCAGCAGGTGACCTTTGCCCAGCG
DNA 2: CGCTGGGCAAAGGTCACCTGCTGACC
binding result (C/EBP (C/EBPalpha) [2]; label: 32P, GGG/CCC 5' overhangs): no binding

B4: Albumin D C/EBP site (AlbD, -115 to -90) (dsDNA)
DNA 1: TGGTATGATTTTGTAATGGGGTAGGA
DNA 2: TCCTACCCCATTACAAAATCATACCA
binding result (C/EBP (C/EBPalpha) [3]): binds
